± gives the uncertainty stated by the source.

The labels stand for the following.
B1: POU domain, class 3, transcription factor 4, residues 280 to 335; numbered along this chain, P49335 (parent)
chain: KKRTSIEVSVKGVLETHFLKCPKPAAQEISSLADSLQLEKEVVRVWFCNRRQKEKR

The variants in the series derive from B1. Nature of the series: abundance fitness (aPCA) (normalised: wild type 0, dead -1); higher = more abundant; growth selection in yeast, the domain comes from the species named. As to conditions: Homo sapiens.
On to KKRTSIEVSVKGVLETHFLKCPKPAAQEISSLADSLQLEKEVVRVWFCNRRQREKR [K53R], for which the abundance fitness is -0.171 ± 0.15.
Turning to KKRTSIEVSVKGVLETHFLKCPKPAAQEISSLADSLQLEKEVVRVWFCNRRQDEKR [K53D], the abundance fitness is -0.232 ± 0.2.
Regarding KKRTSIEVSVKGVLETHFLKCPKPAAQEISSLADSLQLEKEVVRVWFCNRRQKECR [K55C], the abundance fitness is -0.017 ± 0.21.
Turning to KKRTSIEVSVKGVLETHFLKCPKPAAQEISSLADSLQLEKEVVRVWFCNRRQKENR [K55N], the abundance fitness was -0.147 ± 0.22.
With KKRTSIEVSVKGVLETHFLKCPKPAAQEISSLADSLQLEKEVVRVWFCNRRQKEDR [K55D], the abundance fitness is -0.223 ± 0.28.
For KKRTSIEVSVKGVLETHFLKCPKPAAQEISSLADSLQLEKEVVRVWFCNRRQKEAR [K55A], the abundance fitness is -0.1 ± 0.17.
As for KKRTSIEVSVKGVLETHFLKCPKPAAQEISSLADSLQLEKEVVRVWFCNRRQKEGR [K55G], the abundance fitness was -0.392 ± 0.13.
For KKRTSIEVSVKGVLETHFLKCPKPAAQEISSLADSLQLEKEVVRVWFCNRRQKEMR [K55M] the value was -0.264 ± 0.26; for KKRTSIEVSVKGVLETHFLKCPKPAAQEISSLADSLQLEKEVVRVWFCNRRQKETR [K55T], -0.417 ± 0.2; for KKRTSIEVSVKGVLETHFLKCPKPAAQEISSLADSLQLEKEVVRVWFCNRRQKEFR [K55F], -0.194 ± 0.32.
KKRTSIEVSVKGVLETHFLKCPKPAAQEISSLADSLQLEKEVVRVWFCNRRQKERR [K55R]: the abundance fitness is -0.027 ± 0.14.
For KKRTSIEVSVKGVLETHFLKCPKPAAQEISSLADSLQLEKEVVRVWFCNRRQKEQR [K55Q], the abundance fitness is -0.016 ± 0.48.
For KKRTSIEVSVKGVLETHFLKCPKPAAQEISSLADSLQLEKEVVRVWFCNRRQKEER [K55E] the value was -0.259 ± 0.22; for KKRTSIEVSVKGVLETHFLKCPKPAAQEISSLADSLQLEKEVVRVWFCNRRQKEPR [K55P], -0.764 ± 0.33.
Regarding KKRTSIEVSVKGVLETHFLKCPKPAAQEISSLADSLQLEKEVVRVWFCNRRQKEIR [K55I], the abundance fitness was -0.604 ± 0.27.
On to KKRTSIEVSVKGVLETHFLKCPKPAAQEISSLADSLQLEKEVVRVWFCNRRQKESR [K55S], for which the abundance fitness is -0.368 ± 0.17.
For KKRTSIEVSVKGVLETHFLKCPKPAAQEISSLADSLQLEKEVVRVWFCNCRQKEKR [R50C] the value was -0.769 ± 0.36; for KKRTSIEVSVKGVLETHFLKCPKPAAQEISSLADSLQLEKEVVRVWFCNIRQKEKR [R50I], -0.93 ± 0.28; for KKRTSIEVSVKGVLETHFLKCPKPAAQEISSLADSLQLEKEVVRVWFCNQRQKEKR [R50Q], -0.88 ± 0.41.
Turning to KKRTSIEVSVKGVLETHFLKCPKPAAQEISSLADSLQLEKEVVRVWFCNERQKEKR [R50E], the abundance fitness was -0.814 ± 0.21.
In the case of KKRTSIEVSVKGVLETHFLKCPKPAAQEISSLADSLQLEKEVVRVWFCNPRQKEKR [R50P], the abundance fitness was -0.87 ± 0.23.
For KKRTSIEVSVKGVLETHFLKCPKPAAQEISSLADSLQLEKEVVRVWFCNGRQKEKR [R50G] the value was -0.778 ± 0.14; for KKRTSIEVSVKGVLETHFLKCPKPAAQEISSLADSLQLEKEVVRVWFCNYRQKEKR [R50Y], -0.559 ± 0.34.
As for KKRTSIEVSVKGVLETHFLKCPKPAAQEISSLADSLQLEKEVVRVWFCNARQKEKR [R50A], the figure is -0.582 ± 0.14; as for KKRTSIEVSVKGVLETHFLKCPKPAAQEISSLADSLQLEKEVVRVWFCNTRQKEKR [R50T], -0.693 ± 0.25; as for KKRTSIEVSVKGVLETHFLKCPKPAAQEISSLADSLQLEKEVVRVWFCNMRQKEKR [R50M], -0.692 ± 0.34.
Take KKRTSIEVSVKGVLETHFLKCPKPAAQEISSLADSLQLEKEVVRVWFCNLRQKEKR [R50L]: the abundance fitness was -0.93 ± 0.2.
Turning to KKRTSIEVSVKGVLETHFLKCPKPAAQEISSLADSLQLEKEVVRVWFCNNRQKEKR [R50N], the abundance fitness was -0.771 ± 0.41.
For the variant KKRTSIEVSVKGVLETHFLKCPKPAAQEISSLADSLQLEKEVVRVWFCNWRQKEKR [R50W], the abundance fitness is -0.999 ± 0.34.
On to KKRTSIEVSVKGVLETHFLKCPKPAAQEISSLADSLQLEKEVVRVWFCNKRQKEKR [R50K], for which the abundance fitness was -0.446 ± 0.2.
Consider KKRTSIEVSVKGVLETHFLKCPKPAAQEISSLADSLQLEKEVVRVWFCNRRLKEKR [Q52L], for which the abundance fitness is -0.055 ± 0.13.
For KKRTSIEVSVKGVLETHFLKCPKPAAQEISSLADSLQLEKEVVRVWFCNRRWKEKR [Q52W], the abundance fitness was -0.685 ± 0.23.
As for KKRTSIEVSVKGVLETHFLKCPKPAAQEISSLADSLQLEKEVVRVWFCNRRPKEKR [Q52P], the abundance fitness was -0.741 ± 0.22.
KKRTSIEVSVKGVLETHFLKCPKPAAQEISSLADSLQLEKEVVRVWFCNRRVKEKR [Q52V]: the abundance fitness is -0.378 ± 0.14.
As to KKRTSIEVSVKGVLETHFLKCPKPAAQEISSLADSLQLEKEVVRVWFCNRRDKEKR [Q52D], the abundance fitness stood at 0.231 ± 0.2.
Turning to KKRTSIEVSVKGVLETHFLKCPKPAAQEISSLADSLQLEKEVVRVWFCNRRYKEKR [Q52Y], the abundance fitness is -0.095 ± 0.34.
In the case of KKRTSIEVSVKGVLETHFLKCPKPAAQEISSLADSLQLEKEVVRVWFCNRRGKEKR [Q52G], the abundance fitness is -0.34 ± 0.13.
As for KKRTSIEVSVKGVLETHFLKCPKPAAQEISSLADSLQLEKEVVRVWFCNRREKEKR [Q52E], the figure is 0.084 ± 0.17.
For KKRTSIEVSVKGVLETHFLKCPKPAAQEISSLADSLQLEKEVVRVWFCNRRIKEKR [Q52I] the value was -0.126 ± 0.23; for KKRTSIEVSVKGVLETHFLKCPKPAAQEISSLADSLQLEKEVVRVWFCNRRAKEKR [Q52A], 0.203 ± 0.13.
As for KKRTSIEVSVKGVLETHFLKCPKPAAQEISSLADSLQLEKEVVRVWFCNRRMKEKR [Q52M], the figure is 0.071 ± 0.2; as for KKRTSIEVSVKGVLETHFLKCPKPAAQEISSLADSLQLEKEVVRVWFCNRRRKEKR [Q52R], -0.317 ± 0.13.
KKRTSIEVSVKGVLETHFLKCPKPAAQEISSLADSLQLEKEVVRVWFCNRRNKEKR [Q52N]: the abundance fitness is 0.273 ± 0.27.
Take KKRTSIEVSVKGVLETHFLKCPKPAAQEISSLADSLQLEKEVVRVWFCNRRTKEKR [Q52T]: the abundance fitness was -0.351 ± 0.22.
Turning to KKRTSIEVSVKGVLETHFLKCPKPAAQEISSLADSLQLEKEVVRVWFCNRRCKEKR [Q52C], the abundance fitness was -0.291 ± 0.21.
For KKRTSIEVSVKGVLETHFLKCPKPAAQEISSLADSLQLEKEVVRVWFCNRRHKEKR [Q52H] the value was -0.069 ± 0.23; for KKRTSIEVSVKGVLETHFLKCPKPAAQEISSLADSLQLEKEVVRVWFCNRRFKEKR [Q52F], -0.931 ± 0.38.

The values above are taken from the Human Domainome abundance scans (Beltran et al. 2025).
